This data set deals with the molecule itself. The data set is described as follows: native gel or EMSA; increasing concentrations of purified wild-type and mutant PCNA on a 12% non-denaturing polyacrylamide gel. Background: In EMSA bound probe runs differently from free probe, usually more slowly.

Broadly, the stoichiometry N is the number of molecules, sites or subunits per partner or assembly.

B1: wild-type PCNA (proliferating cell nuclear antigen), purified (natural protein, yeast, UniProt P15873 1-258, looked up)
chain: MLEAKFEEASLFKRIIDGFKDCVQLVNFQCKEDGIIAQAVDDSRVLLVSLEIGVEAFQEYRCDHPVTLGMDLTSLSKILRCGNNTDTLTLIADNTPDSIILLFEDTKKDRIAEYSLKLMDIDADFLKIEELQYDSTLSLPSSEFSKIVRDLSQLSDSINIMITKETIKFVADGDIGSGSVIIKPFVDMEHPETSIKLEMDQPVDLTFGAKYLLDIIKGSSLSDRVGIRLSSEAPALFQFDLKSGFLQFFLAPKFNDEE
notes: PCNA (POL30), yeast; open reading frame cloned in N-terminal fusion with GST; also called Pol30; source: protease deficient yeast strain BJ5464, galactose inducible promoter (pBJ842 backbone), purified
B1: the “stoichiometry N” value stood at 3.
